In patent US20220064314A1 (QLSF BIOTHERAPEUTICS, published 2022):
Numbering of substitutions follows the chain as printed.

B1: F1.1 (antibody, V domains shown)
VH: QVQLQQSGAELARPGASVKMSCKASGYTFTFYTMHWLKQRPGQGLEWIGYINPSSGYTNYNQKFTDKATLTADKSSSTAYMQLSSLTSEDSAVYYCARSDGSSSKWYFDVWGTGTTVTVSS
VL: QIVLSQSPTILSASPGEKVTMTCRASSSVSYIHWYQQKPGSSPKAWISATSNLASGVPARFSGSGSGTSYSLTISRVEAEDAATYYCQQWSSNPFTFGSGTKLEIK
notes: The flow method detects with anti-human IgG; also called anti-4-1BB mAb F1.1
B2: huF1.1.G2.2.4 (antibody, human IgG2, kappa, V domains shown)
VH: QVQLVQSGAEVKKPGASVKVSCKASGYTFTFYTMHWLRQAPGQGLEWIGYINPSSGYTNYNQKFTDRATLTADTSTSTAYMELSSLRSEDTAVYYCARSDGSSSKWYFDVWGQGTTVTVSS
VL: EIVLTQSPDFQSATPKEKVTITCRASSSVSYIHWYQQKPGSSPKAWISATSNLASGVPSRFSGSGSGTSYTLTINRVEAEDAATYYCQQWSSNPFTFGQGTKLEIKR
notes: also called huF1.1.2.4
B3: huF1.1.G2.4.4 (antibody, human IgG2, kappa, V domains shown)
VH: B2 VH with V20M, R38K, T74K
VL: B2 VL
notes: also called huF1.1.4.4
B4: cAb 137QL.F1.1.G2 (antibody, human IgG2, V domains shown)
VH: B1 VH
VL: B1 VL
notes: Chimeric antibody; also called Chimeric F1.1; cAb F1.1.G2
B5: G28.21 (antibody, V domains shown)
VH: EVQLQQSGAELVRPGASVKLSCTASGFNIKDYYIHWVNQRPEQGLEWIGRIDPEDGDIAYAPKFQDKATLTVDTSSNTAYLHIIGLTSEDTAVYYCTTGNYYAMDFWGQGTSVTVSS
VL: QIVLTQSPAIMSASLGERVTMTCTASSSVSSSYLHWYQQKPGSSPKLWIYSTSNLASGVPARFSGSGSGTSYSLTISSMEAEDAATYYCHQYHRSPPTFGSGTKLEIK
notes: also called anti-4-1BB mAb G28.21
B6: huG28.21.G2.1.4 (antibody, human IgG2, kappa, V domains shown)
VH: EVQLVQSGAEVKKPGATVKISCKASGFNIKDYYIHWVNQAPGKGLEWIGRIDPEDGDIAYAPKFQDRVTLTVDTSTDTAYLELSSLRSEDTAVYYCTTGNYYAMDFWGQGTTVTVSS
VL: QIVLTQSPATLSASPGERVTLSCTASSSVSSSYLHWYQQKPGSSPKLWIYSTSNLASGVPARFSGSGPGTSYTLTISSMEPEDAATYYCHQYHRSPPTFGQGTKLEIKR
notes: also called huG28.21.1.4
B7: huG28.21.G2.4.4 (antibody, human IgG2, kappa, V domains shown)
VH: B6 VH with V5Q, I20L, A40R, K43Q, V68A, D77N
VL: B6 VL
notes: also called huG28.21.4.4
B8: cAB 137QL.G28.21.G2 (antibody, human IgG2, V domains shown)
VH: B5 VH
VL: B5 VL
notes: Chimeric antibody; also called Chimeric G28.21; cAb G28.21.G2

Legend:
human 4-1BB on cells [1] = target: T1, human 4-1BB on cells (human, UniProt Q07011 24-255); assay: cell-based or functional assay
[2] = target: T2, mouse 4-1BB on HEK293 cells (mouse, UniProt P20334 24-256); assay: flow cytometry, mouse 4-1BB transfected HEK293 cells
T2 construct: whole, on cells; also called Mouse 4-1BB transfected HEK293 cells
T2 sequence (looked up): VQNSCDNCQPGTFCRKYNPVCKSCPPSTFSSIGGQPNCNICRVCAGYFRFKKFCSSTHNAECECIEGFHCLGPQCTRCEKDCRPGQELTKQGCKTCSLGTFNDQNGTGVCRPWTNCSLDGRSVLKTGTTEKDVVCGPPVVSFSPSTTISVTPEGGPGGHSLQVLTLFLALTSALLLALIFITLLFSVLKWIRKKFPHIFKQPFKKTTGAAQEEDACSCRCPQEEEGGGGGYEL
Description: (§1) Human/Cyno/Mouse 4-1BB transfected HEK293 cells or PHA-P stimulated PBMCs were incubated with serial diluted anti-4-1BB antibodies in FACS buffer (DPBS+ 2% FBS+ 0.05% sodium azide) followed by AF647-labeled F(ab′)2 goat anti-human IgG and 7-AAD. In addition, PBMCs were incubated with FITC Mouse anti-human CD3. Stained 4-1BB expressing HEK293 samples were analyzed using FlowJo by gating on FSC/SSC, followed by live/dead cell gating, and human/Cynomolgous/Mouse 4-1BB+ cells (MFI Geo Mean denoted). Stained Lymphocyte samples were analyzed using FlowJo by gating on FSC/SSC, followed by live/dead cell gating, and CD3+ cells with 4-1BB positives. (Table 2 and Table 3)

[3] = target: T3, cyno 4-1BB on HEK293 cells (cyno, UniProt A9YYE7 24-254); assay: flow cytometry, HEK293 cells over-expressing cyno 4-1BB
T3 construct: whole, on cells; also called Cynomolgous 4-1BB; HEK293 cells over-expressing cyno 4-1BB
Description: as §1

human 4-1BB on cells [4] = target: T1, human 4-1BB on cells; assay: flow cytometry, HEK293 cells over-expressing human 4-1BB
Description: as §1

human 4-1BB on cells [5] = target: T1, human 4-1BB on cells; assay: flow cytometry, activated (PHA-P stimulated) human T cells
Description: as §1

human 4-1BB on cells [6] = target: T1, human 4-1BB on cells; assay: cell-based or functional assay; remark: listed apart in the source
[7] = target: T4, 4-1BB (CD137), antigen of the Octet kinetics (UniProt Q07011 24-186, limits assumed); assay: Octet (BLI), mono-valent binding kinetics
T4 construct: also called TNFRSF9

T1 sequence (Q07011 24-255): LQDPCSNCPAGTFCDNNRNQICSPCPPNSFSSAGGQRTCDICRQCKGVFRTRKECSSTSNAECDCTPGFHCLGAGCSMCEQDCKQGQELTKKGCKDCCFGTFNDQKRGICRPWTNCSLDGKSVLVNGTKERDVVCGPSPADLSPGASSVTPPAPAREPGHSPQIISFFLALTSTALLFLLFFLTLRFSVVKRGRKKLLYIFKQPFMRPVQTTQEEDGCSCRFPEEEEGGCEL
T3 sequence (A9YYE7 entry or part of it): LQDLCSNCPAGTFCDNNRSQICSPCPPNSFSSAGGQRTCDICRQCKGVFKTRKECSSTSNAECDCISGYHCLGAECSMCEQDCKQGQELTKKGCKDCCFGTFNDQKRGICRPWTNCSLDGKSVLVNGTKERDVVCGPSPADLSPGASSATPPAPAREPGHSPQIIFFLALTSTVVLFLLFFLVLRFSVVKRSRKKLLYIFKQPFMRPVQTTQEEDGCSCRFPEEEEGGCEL

| Binder | NF-kB Stimulation (EC50) (human 4-1BB on cells [1]) [µg/mL] | binding result [2] | EC50 [3] [µg/mL] | EC50 (human 4-1BB on cells [4]) [µg/mL] | EC50 (human 4-1BB on cells [5]) [µg/mL] | NF-KB reporter activation, curve fit Bottom (human 4-1BB on cells [6]) [RLU] | NF-KB reporter activation, curve fit Top (human 4-1BB on cells [6]) [RLU] | Kd [7] [nM] | Response [7] | T1/2 Life [7] [min] | koff [7] [s⁻¹] | kon [7] [M⁻¹ s⁻¹] |
| --- | --- | --- | --- | --- | --- | --- | --- | --- | --- | --- | --- | --- |
| B1 | 0.026 | no binding | 0.392 | 0.341 | 0.233 |  |  |  |  |  |  |  |
| B2 |  |  |  |  |  | 838 | 7190 | 40.6 | 0.12 | 2.1 | 0.00559 | 138000 |
| B3 |  |  |  |  |  | 666 | 5940 | 40.4 | 0.137 | 1.9 | 0.00618 | 153000 |
| B4 |  |  |  |  |  | 894 | 6730 | 41.9 | 0.138 | 2 | 0.00578 | 138000 |
| B5 | 0.018 | no binding | 0.162 | 0.121 | 0.08 |  |  |  |  |  |  |  |
| B6 |  |  |  |  |  | 625 | 4170 | 15.3 | 0.181 | 1.8 | 0.00652 | 426000 |
| B7 |  |  |  |  |  | 592 | 3920 | 10.4 | 0.175 | 2.5 | 0.00467 | 449000 |
| B8 |  |  |  |  |  | 879 | 4590 | 14 | 0.204 | 2.2 | 0.00523 | 373000 |
